Blank lines part the entries; values can stand above or below the binder they belong to.
Columns and labels:
[1] = molecular target: T1, neuronal pentraxin receptor (NPR), full length, rat (rat, UniProt O35764 1-494); assay: co-IP from co-transfected HEK293T cells
T1 construct: whole, on cells; Stands for NPR expressed in HEK293T cells and for native NPR of rat brain extracts; also called full-length NPR; wtNPR
T1 sequence (looked up): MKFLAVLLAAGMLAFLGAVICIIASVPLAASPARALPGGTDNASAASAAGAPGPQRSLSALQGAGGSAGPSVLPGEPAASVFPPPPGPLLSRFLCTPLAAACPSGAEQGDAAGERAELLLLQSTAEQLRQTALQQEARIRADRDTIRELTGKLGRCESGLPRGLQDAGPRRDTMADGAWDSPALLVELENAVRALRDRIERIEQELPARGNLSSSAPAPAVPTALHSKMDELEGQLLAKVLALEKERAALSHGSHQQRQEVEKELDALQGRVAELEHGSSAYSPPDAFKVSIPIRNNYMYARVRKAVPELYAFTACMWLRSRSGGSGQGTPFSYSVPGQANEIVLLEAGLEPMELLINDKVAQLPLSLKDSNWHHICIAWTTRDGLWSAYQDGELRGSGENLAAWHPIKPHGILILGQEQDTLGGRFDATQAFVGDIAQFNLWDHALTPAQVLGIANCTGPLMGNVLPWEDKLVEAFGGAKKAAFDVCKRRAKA
From the text: (§1) Narp and NP1 form highly organized homo- and hetero-multimer complexes that are covalently linked by N-terminal disulfide bonds (Xu et al., supra). Moreover, NPR and Narp formed heteromultimer complexes when coexpressed in HEK293T cells. Heteromultimer complex formation is dependent on the first and third cysteines of NPs that flank the first coiled-coil domain (Xu et al., supra). NPR was co-expressed with mutants of Narp, in which two or all three of the cysteines are mutated to serine. In mutant “Narp (C1, 2S),” the cysteines at positions 14 and […] were mutated to serines, and in mutant “Narp (C1, 2, 3S)” the cysteines at positions 14, 26, and 79 were mutated to serines. […] Thus, it appeared that NPR and Narp formed heterocomplexes that are stabilized by disulfide bonds. To examine NP complexes in brain, lysates from a control mouse were prepared and immunoprecipitated with rabbit antibody specific to NP1 or Narp. Lysates from knockout mice NP1 KO, Narp KO and combined NP1/Narp/NPR KO (NP TKO) were also utilized as controls. […] The ˜25 kDa band, presumptive NTF-NPR, also specifically co-IPed with both Narp and NP1. […] The pentraxin domain of Narp and NP1 is required for interaction with AMPAR.
(§2) To determine if NPR would interact with AMPAR, AMPAR subunits from GluR1 or GluR6 were HA tagged (GluR1-HA and GluR6-HA, respectively) were co-transfected with myc-tagged Narp (Narp-myc) or NPR(NPR-myc) into HEK293T cells. Lysates were assayed for co-immunoprecipitation. […] Similarly, GluR1-HA but not GluR6-HA co-IPed with NPR-myc.

[2] = molecular target: T2, GluR6-HA (HA tagged GluR6 of Example 10) (UniProt P42260 32-908, limits assumed); assay: co-IP from co-transfected HEK293T cells
T2 construct: whole, on cells; not shown: HA tag
From the text: as §1, §2

[3] = molecular target: T3, native NPR of mouse brain (mouse, UniProt Q99J85 1-493); assay: co-IP from mouse brain lysate with a rabbit antibody to NP1; knockout lysates as controls
T3 sequence (looked up): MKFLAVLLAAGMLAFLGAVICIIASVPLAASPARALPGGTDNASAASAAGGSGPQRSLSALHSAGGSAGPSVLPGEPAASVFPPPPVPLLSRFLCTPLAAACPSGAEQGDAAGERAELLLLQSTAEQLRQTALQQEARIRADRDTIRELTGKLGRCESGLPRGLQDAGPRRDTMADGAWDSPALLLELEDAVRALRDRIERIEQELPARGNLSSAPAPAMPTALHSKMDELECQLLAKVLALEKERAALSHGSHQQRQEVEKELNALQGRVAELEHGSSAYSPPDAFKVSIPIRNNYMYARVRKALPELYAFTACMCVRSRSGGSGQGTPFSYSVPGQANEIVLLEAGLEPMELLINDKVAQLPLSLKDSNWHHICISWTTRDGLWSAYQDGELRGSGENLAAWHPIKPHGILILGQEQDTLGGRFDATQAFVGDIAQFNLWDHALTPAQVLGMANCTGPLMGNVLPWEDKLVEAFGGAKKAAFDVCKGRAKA
From the text: as §1

[4] = molecular target: T3, native NPR of mouse brain; assay: co-IP from mouse brain lysate with a rabbit antibody to Narp; knockout lysates as controls
From the text: as §1

T2 sequence (P42260 32-908 limits assumed): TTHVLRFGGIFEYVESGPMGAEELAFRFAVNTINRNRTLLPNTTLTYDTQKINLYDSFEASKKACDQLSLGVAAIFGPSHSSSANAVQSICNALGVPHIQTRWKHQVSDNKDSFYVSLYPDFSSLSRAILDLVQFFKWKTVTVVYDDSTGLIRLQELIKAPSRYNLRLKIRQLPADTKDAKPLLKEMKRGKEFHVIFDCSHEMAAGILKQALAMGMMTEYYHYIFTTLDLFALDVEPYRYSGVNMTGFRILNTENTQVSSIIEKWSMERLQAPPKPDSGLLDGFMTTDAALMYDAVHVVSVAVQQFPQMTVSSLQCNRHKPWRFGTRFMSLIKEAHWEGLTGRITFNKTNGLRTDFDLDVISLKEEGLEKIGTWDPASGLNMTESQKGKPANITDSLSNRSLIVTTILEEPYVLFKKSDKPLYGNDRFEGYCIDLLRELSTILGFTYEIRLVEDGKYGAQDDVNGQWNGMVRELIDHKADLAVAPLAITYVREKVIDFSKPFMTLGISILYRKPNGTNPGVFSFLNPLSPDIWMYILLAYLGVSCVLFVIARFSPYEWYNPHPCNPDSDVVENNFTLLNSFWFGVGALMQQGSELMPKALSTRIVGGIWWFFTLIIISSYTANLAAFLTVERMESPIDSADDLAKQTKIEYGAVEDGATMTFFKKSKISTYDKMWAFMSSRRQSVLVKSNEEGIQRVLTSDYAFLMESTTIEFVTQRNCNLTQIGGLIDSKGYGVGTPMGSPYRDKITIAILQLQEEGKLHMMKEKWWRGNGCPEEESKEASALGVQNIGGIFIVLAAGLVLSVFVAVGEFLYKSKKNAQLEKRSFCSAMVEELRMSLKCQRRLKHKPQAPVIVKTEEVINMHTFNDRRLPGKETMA

B1: Narp (C1, 3S)-myc, Narp mutant in which cysteines 14 and 79 are mutated to serines (ligand)
chain: QAQDNPIPGSRFVSTALPPEAARAGCPLPAMPMQGGALSPEEELRAAVLHWRETVVQQKETLGAQREAIRELTSKLARSEGLAGGKARGTGATGKDTMGDLPRDPGHVVEQLSRSLQTLKDRLESLELQLHTNASNAGLPSDFREVLQRRLGELERQLLRKVAELEDEKSLLHNETSAHRQKTENTLNALLQRVTELERGNSAFKSPDAFKVSLPLRTNYLYGKIKKTLPELYAFTICLWLRSSASPGIGTPFSYAVPGQANEIVLIEWGNNPIELLINDKVAQLPLFVSDGKWHHICITWTTRDGMWEAFQDGEKLGTGENLAPWHPIKPGGVLILGQEQDTVGGRFDATQAFVGELSQFNIWDRVLRAQEIINIANCSTNMPGNIIPWVDNNVDVFGGASKWPVETCEERLLDL
notes: also called Narp (C1, 2S); mutant Narp; not shown: C-terminal myc tag
binding result [1]: no binding

B2: Narp (C1, 2, 3S)-myc, Narp mutant in which cysteines 14, 26, and 79 are mutated to serines (ligand)
chain: QAQDNPIPGSRFVSTALPPEAARAGSPLPAMPMQGGALSPEEELRAAVLHWRETVVQQKETLGAQREAIRELTSKLARSEGLAGGKARGTGATGKDTMGDLPRDPGHVVEQLSRSLQTLKDRLESLELQLHTNASNAGLPSDFREVLQRRLGELERQLLRKVAELEDEKSLLHNETSAHRQKTENTLNALLQRVTELERGNSAFKSPDAFKVSLPLRTNYLYGKIKKTLPELYAFTICLWLRSSASPGIGTPFSYAVPGQANEIVLIEWGNNPIELLINDKVAQLPLFVSDGKWHHICITWTTRDGMWEAFQDGEKLGTGENLAPWHPIKPGGVLILGQEQDTVGGRFDATQAFVGELSQFNIWDRVLRAQEIINIANCSTNMPGNIIPWVDNNVDVFGGASKWPVETCEERLLDL
notes: also called mutant Narp; not shown: C-terminal myc tag
binding result [1]: no binding

Results, then the binder that gave them:

binding result [2]: no binding
B3: C-terminal myc-tagged version of Narp (myc-Narp) (ligand)
chain: QAQDNPIPGSRFVCTALPPEAARAGCPLPAMPMQGGALSPEEELRAAVLHWRETVVQQKETLGAQREAIRELTSKLARCEGLAGGKARGTGATGKDTMGDLPRDPGHVVEQLSRSLQTLKDRLESLELQLHTNASNAGLPSDFREVLQRRLGELERQLLRKVAELEDEKSLLHNETSAHRQKTENTLNALLQRVTELERGNSAFKSPDAFKVSLPLRTNYLYGKIKKTLPELYAFTICLWLRSSASPGIGTPFSYAVPGQANEIVLIEWGNNPIELLINDKVAQLPLFVSDGKWHHICITWTTRDGMWEAFQDGEKLGTGENLAPWHPIKPGGVLILGQEQDTVGGRFDATQAFVGELSQFNIWDRVLRAQEIINIANCSTNMPGNIIPWVDNNVDVFGGASKWPVETCEERLLDL
notes: also called myc-tagged Narp; myc-tagged full length Narp; not shown: C-terminal myc tag

binding result [3]: binds
B4: native neuronal pentraxin 1 (NP1) of mouse brain (ligand, UniProt Q62443 23-432, looked up)
chain: QDFGPTRFICTSVPVDADMCAASVAAGGAEELRSNVLQLRETVLQQKETILSQKETIRELTTKLGRCESQSTLDSGPGEARSGGGRKQPGSGKNTMGDLSRTPAAETLSQLGQTLQSLKTRLENLEQYSRLNSSSQTNSLKDLLQSKIDDLERQVLSRVNTLEEGKGGPKNDTEERAKIESALTSLHQRISELEKGQKDNRPGDKFQLTFPLRTNYMYAKVKKSLPEMYAFTVCMWLKSSAAPGVGTPFSYAVPGQANELVLIEWGNNPMEILINDKVAKLPFVINDGKWHHICVTWTTRDGVWEAYQDGTQGGNGENLAPYHPIKPQGVLVLGQEQDTLGGGFDATQAFVGELAHFNIWDRKLTPGEVYNLATCSSKALSGNVIAWAESQIEIFGGATKWTFEACRQIN

binding result [4]: binds
B5: native Narp of mouse brain (ligand, UniProt O70340 15-429, looked up)
chain: AGRAQDSPIPGSRFVCTALPPEAARAGCPLPAMPMQGGALSPEEELRAAVLQLRETVVQQKETLGAQREAIRELTGKLARCEGLAGGKARGTGKDTMGDLPRDPGHVVEQLSRSLQTLKDRLESLELQLRTNVSNAGLPSDFREVLQRRLGELERQLLRKVAELEDEKSLLHNETSAHRQKTESTLNALLQRVTELERGNSAFKSPDAFKVSLPLRTNYLYGKIKKTLPELYAFTICLWLRSSASPGIGTPFSYAVPGQANEIVLIEWGNNPIELLINDKVAQLPLFVSDGKWHHICITWTTRDGMWEAFQDGEKLGTGENLAPWHPIKPGGVLILGQEQDTVGGRFDATQAFVGELSQFNIWDRVLRAQEIINIANCSTNMPGNIIPWVDNNVDVFGGASKWPVETCEERLLDL

Reference: US20090123940A1 (Johns Hopkins, published 2009)
